The text below walks through data of patent US12577303B2.

Assay [1] deals with human Sirpα-V1 recombinant protein (human) (UniProt P78324). Put plainly: ELISA, subclone supernatant.
Assay [2] concerns the target human Sirpα-V2-his (human). Put plainly: ELISA, subclone supernatant. For orientation: An ELISA detects its analyte on a solid surface through an enzyme-linked reagent.
Assay [3] deals with human Sirpα-V1-his (human) (UniProt P78324). Put plainly: blocking ELISA: hSirpα-V1-his, hCD47-Fc (dimer).
Assay [4] addresses human Sirpα-V1-hFc (human) (UniProt P78324). As to the kind of experiment: blocking ELISA: hSirpα-V1-hFc (dimer), hCD47-his.
In assay [5] the target is Cyno Sirpα L932 (cynomolgus). Put plainly: ELISA.
Assay [6] deals with Cyno Sirpα L933 (cynomolgus). As to the kind of experiment: ELISA.
The target of assay [7] is Cyno Sirpα L936 (cynomolgus). As to the kind of experiment: ELISA.
In assay [8] the target is Cyno Sirpα L937 (cynomolgus). Put plainly: ELISA.
The target of assay [9] is human Sirpα-V1 recombinant protein (human) (UniProt P78324). Put plainly: ELISA.
Assay [10] has as its target human Sirpα-V2-his (human). Put plainly: ELISA.
For assay [11], the target named is human Sirpα-V1 recombinant protein (human) (UniProt P78324). As to the kind of experiment: ELISA. This is another data set of the same source.
For assay [12], the target named is human Sirpα-V1-hFc (human) (UniProt P78324). As to the kind of experiment: blocking ELISA: hSirpα (dimer) to hCD47.
In assay [13] the target is human Sirpα-V1-his (human) (UniProt P78324). As to the kind of experiment: blocking ELISA: hSirpα to hCD47 (dimer).
Assay [14] concerns the target human Sirpα-V1-hFc (human) (UniProt P78324). Put plainly: blocking ELISA: hSirpα (dimer) to hCD47. This is another data set of the same source.
Assay [15] addresses human Sirpα-V1-his (human) (UniProt P78324). Put plainly: blocking ELISA: hSirpα to hCD47 (dimer). This is another data set of the same source.

Where a chain is given by its changes, count along the chain named. Like-named read-outs stand apart in the source and are kept apart here.

Cyno Sirpα L936 (cynomolgus), sequence (chain, as listed by the source): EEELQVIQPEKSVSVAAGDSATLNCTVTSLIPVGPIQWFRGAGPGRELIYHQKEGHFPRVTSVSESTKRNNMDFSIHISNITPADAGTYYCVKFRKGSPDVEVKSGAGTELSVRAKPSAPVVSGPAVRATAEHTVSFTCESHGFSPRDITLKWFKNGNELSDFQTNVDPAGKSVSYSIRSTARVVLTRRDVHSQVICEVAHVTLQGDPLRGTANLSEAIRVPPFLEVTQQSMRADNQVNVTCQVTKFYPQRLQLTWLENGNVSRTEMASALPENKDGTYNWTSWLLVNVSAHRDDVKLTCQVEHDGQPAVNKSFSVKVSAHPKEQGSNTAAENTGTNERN
Cyno Sirpα L937 (cynomolgus), sequence (chain, as listed by the source): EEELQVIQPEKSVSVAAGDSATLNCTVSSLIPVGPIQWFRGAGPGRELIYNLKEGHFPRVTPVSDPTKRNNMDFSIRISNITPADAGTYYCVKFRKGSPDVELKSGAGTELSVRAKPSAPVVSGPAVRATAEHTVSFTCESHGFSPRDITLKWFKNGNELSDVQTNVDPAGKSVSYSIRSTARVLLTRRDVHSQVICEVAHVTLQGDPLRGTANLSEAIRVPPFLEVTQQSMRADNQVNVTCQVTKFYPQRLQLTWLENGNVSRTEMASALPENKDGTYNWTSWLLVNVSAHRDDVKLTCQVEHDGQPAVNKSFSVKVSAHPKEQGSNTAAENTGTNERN
Cyno Sirpα L932 (cynomolgus), sequence (chain, as listed by the source): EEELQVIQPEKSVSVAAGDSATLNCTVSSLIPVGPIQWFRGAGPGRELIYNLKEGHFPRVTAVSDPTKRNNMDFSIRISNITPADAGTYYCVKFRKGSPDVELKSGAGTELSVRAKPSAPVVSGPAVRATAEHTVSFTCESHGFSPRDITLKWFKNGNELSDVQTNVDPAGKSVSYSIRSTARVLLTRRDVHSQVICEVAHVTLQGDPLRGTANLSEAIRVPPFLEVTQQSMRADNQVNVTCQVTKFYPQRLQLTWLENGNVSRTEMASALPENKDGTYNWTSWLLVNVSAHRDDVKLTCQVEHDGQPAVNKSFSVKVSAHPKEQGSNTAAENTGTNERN
Cyno Sirpα L933 (cynomolgus), sequence (chain, as listed by the source): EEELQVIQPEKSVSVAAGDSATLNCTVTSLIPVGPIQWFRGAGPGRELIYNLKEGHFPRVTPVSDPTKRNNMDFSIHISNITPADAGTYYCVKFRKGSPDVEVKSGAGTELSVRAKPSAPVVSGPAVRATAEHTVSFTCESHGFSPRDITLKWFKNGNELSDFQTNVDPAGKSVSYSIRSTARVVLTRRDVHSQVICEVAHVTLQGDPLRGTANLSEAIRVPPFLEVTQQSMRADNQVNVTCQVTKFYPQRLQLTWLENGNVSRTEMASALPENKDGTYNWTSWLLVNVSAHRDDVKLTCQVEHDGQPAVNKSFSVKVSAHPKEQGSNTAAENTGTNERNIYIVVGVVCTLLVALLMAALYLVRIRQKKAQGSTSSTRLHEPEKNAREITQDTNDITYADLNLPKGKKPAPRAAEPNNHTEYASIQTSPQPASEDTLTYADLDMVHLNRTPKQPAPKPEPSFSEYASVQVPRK

B1: 14H6E5B5C8G2 (antibody, V domains shown)
VH: QVHLQQPGAELVKPGASVKLSCKASGYNFNIYWINWVKQRPGQGLEWIGNIYPSSISTNYNEKFKTKATLTVDKSSNTVYMQFSSLTSEDSAVYYCARSEGTYYGGRYEGDWFGYWGQGTLVTVSA
VL: DIQMTQTTSSLSASLGDRVTISCRASQDIRNYLNWYQQKPDGTVKLLIYFTSTLHSGVPSRFSGSGSGTDYSLTISNLEQEDIATYFCQQGNTLPWTFGGGTKLEIK
In the case of B1, the values for the ELISA value, activity of binding in [1] and in assay [2] were 1.27 and 1.25, respectively. Further, the ELISA value of the blocking assay in assay [3] was found to be 0.42; in assay [4], 0.069.

B2: human-murine chimeric antibody mab14c (antibody, V domains shown)
VH: B1 VH
VL: DIQMTQTTSSLSASLGDRVTISCRASQDIRNYLNWYQQKPDGTVKLLIYFTSTLHSGVPSRFSGSGSGTDYSLTISNLEQEDIATYFCQQGNTLPWTFGGGTKLEIKR
As a reminder, the EC50 is the concentration at which the effect is half-maximal. What is called IC50 is the concentration needed to halve the response being measured. A higher IC50 goes with weaker potency. As to B2, the EC50 was found to be 0.1 nM in assay [5]; 0.14 nM in assay [6]; 0.099 nM in assay [7]; 0.099 nM in [8]; 0.16 nM in assay [9]; 0.14 nM in assay [10]. In addition, the 50% effective concentration (EC50) in [11] came out at 0.093 nM. For the same molecule, the concentration for half-maximal inhibition (IC50) in assay [12] is 5.7 nM; in assay [13], 5.54 nM; in assay [14], 5.48 nM; in [15], 9.98 nM.

B3: mab14-h2 (antibody, V domains shown)
VH: QVQLVQSGAEVKKPGASVKVSCKASGYNFNIYWINWVKQAPGQGLEWIGNIYPSSISTNYNEKFKTKATLTVDKSTSTVYMEFSSLRSEDTAVYYCARSEGTYYGGRYEGDWFGYWGQGTLVTVSS
VL: DIQMTQSPSSLSASVGDRVTITCRASQDIRNYLNWYQQKPGGTVKLLIYFTSTLHSGVPSRFSGSGSGTDYTLTISSLQPEDFATYYCQQGNTLPWTFGGGTKVEIKR
Turning to B3, in assay [11], the concentration giving a half-maximal response (EC50) came out at 0.073 nM.

B4: mab14-h6 (antibody, V domains shown)
VH: B3 VH with K67R, K74T, F83L
VL: B3 VL
For B4, the concentration giving a half-maximal response (EC50) in assay [11] was 0.095 nM.

B5: mab14-h7 (antibody, V domains shown)
VH: B3 VH with K74T, F83L
VL: B3 VL
As for B5, in [11], the EC50 is 0.081 nM.

B6: mab14-h5 (antibody, V domains shown)
VH: B3 VH with K38R, K67R, F83L
VL: B3 VL
Regarding B6, in assay [11], the EC50 was determined as 0.061 nM. The IC50 worked out at 8.99 nM in [14] and 8.47 nM in [15].

B7: mab14-h3 (antibody, V domains shown)
VH: B3 VH with K38R, I48M, K67R, K74T, F83L
VL: B3 VL
With B7, in assay [11], the EC50 came out at 0.103 nM.

B8: mab14-h4 (antibody, V domains shown)
VH: B3 VH with K38R, K67R, K74T, F83L
VL: B3 VL
As for B8, the EC50 in assay [11] amounted to 0.088 nM.
